B3: 15B6 anti-mesothelin antibody (IgG2b) (antibody, V domains shown)
VH: EVQLQQSGPVLVKPGASVKISCKASGYSFTGYYMHWVRQSLVKRLEWIGRINPYTGVPSYKHNFKDKASLTVDKSSSTAYMELHSLTSEDSAVYYCARELGGYWGQGTTLTVSS
VL: QAVVTQESALTTSPGETVTLTCRSSTGAVTTGNYPNWVQEKPDHLFTGLIAGTNNRAPGVPARFSGSLIGDKAALTITGAQTEDEAIYFCALWFSSHWVFGGGTKLTVL
notes: Mouse hybridoma monoclonal antibody, IgG 2b; also called Mab 15B6; antibody 15B6
B4: 2B4 anti-mesothelin antibody (IgG2a) (antibody, V domains shown)
VH: EVQLQQSGPELVKPGASVKISCKASGYPFTGHYMHWVKQGHVKSLEWIGRINPYTGAINYNQNFKDKASLSVEKSSSTAYMGLHSLTSEDSAVYYCVRDLGGGYWGQGTTLTVSS
VL: QAVVTQESALTTSPGETVTLTCRSSTGAVTTSNYANWVQEKPDHLFTGLIAGTNNRAPGVPARFSGSLIGDKAALTITGAQPEDEAIFFCALWYSSHWVFGGGTKLTVL
notes: Mouse hybridoma monoclonal antibody, IgG 2a; also called antibody 2B4
B5: 7B5 anti-mesothelin antibody (IgG1) (antibody, V domains shown)
VH: EVQLQQSGPELVKPGTSVKISCKASGYPFTGHYMHWVKQGHVKSLEWIGRINPYTGAINYNQNFKDKASLTVEKSSSTAYMGLHSLTSEDSAVYYCVRDLGGGYWGQGTTLTVSS
VL: QAVVTQESALTTSPGETVTLTCRSSTGAVTTSNYANWVQEKPDHLFTGLIAGTNNRAPGVPARFSGSLIGDKAALTITGAQPEDEAMFFCALWFGSHWVFGGGTKLTVL
notes: Mouse hybridoma monoclonal antibody, IgG 1; also called antibody 7B5

Experiments:
[1] = target: B5; experiment: competition ELISA, antibody 30 ng/ml on coated MSLN-Fc, peptide titrated
Method: (§1) A competition assay was completed using the following peptides: peptide 1 having the sequence CLVLDLSMQEALS (SEQ ID NO: 61) and peptide 2 having the sequence CSMQEALS (SEQ ID NO: 62). An ELISA plate was coated with MSLN(M)-Fc or MSLN(V)-Fc. After overnight incubation, the plates were blocked and washed. The anti-mesothelin stalk antibodies of Example 1 (30 ng/ml) and peptide 1 or peptide 2 were added at different concentrations (100 micrograms/ml to 0.00001 micrograms/ml). After washing, anti-mouse IgG-HRP conjugate were added. The OD was then measured with ELISA.

[2] = target: B3; experiment: as above
Method: as §1

[3] = target: B4; experiment: as above
Method: as §1

[4] = target: T1, mesothelin (296-585) attached to mouse transferrin receptor (TFR) transmembrane domain, on AB1-L9 cells (human; mouse, UniProt Q13421 296-585); experiment: binding to transfected AB1-L9 cells
T1 construct: The order of the parts is as printed; also called AB1-L9 cell line

[5] = target: T2, Fc-mesothelin 296-599 (human, UniProt Q13421 296-599); experiment: ELISA on Fc-mesothelin 296-599
T2 construct: The order of the parts follows the printed name and is not otherwise stated; not shown: Fc part
T2 sequence (Q13421 other isoform, or with tags, fused parts or gaps): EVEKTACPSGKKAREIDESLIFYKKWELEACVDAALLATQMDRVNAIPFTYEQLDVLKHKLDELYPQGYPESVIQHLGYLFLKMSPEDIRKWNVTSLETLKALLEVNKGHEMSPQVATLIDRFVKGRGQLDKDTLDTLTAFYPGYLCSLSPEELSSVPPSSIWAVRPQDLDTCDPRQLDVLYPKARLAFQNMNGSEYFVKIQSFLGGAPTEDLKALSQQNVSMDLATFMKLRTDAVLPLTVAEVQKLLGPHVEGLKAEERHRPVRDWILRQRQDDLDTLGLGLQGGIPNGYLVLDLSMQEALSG

T1 sequence (Q13421 other isoform, or with tags, fused parts or gaps): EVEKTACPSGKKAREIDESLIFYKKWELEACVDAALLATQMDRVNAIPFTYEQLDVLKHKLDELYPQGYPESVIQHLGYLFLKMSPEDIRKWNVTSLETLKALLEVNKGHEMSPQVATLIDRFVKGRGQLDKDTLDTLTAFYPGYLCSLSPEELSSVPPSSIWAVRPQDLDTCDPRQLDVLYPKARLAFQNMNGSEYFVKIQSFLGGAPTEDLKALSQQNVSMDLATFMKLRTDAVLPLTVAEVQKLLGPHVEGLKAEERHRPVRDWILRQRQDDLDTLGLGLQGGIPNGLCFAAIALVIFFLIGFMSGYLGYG

B1: peptide 1 (CLVLDLSMQEALS) (peptide)
peptide: CLVLDLSMQEALS
notes: Mesothelin 587-598 with an added N-terminal cysteine
B1: binds [1]; binds [2]; binds [3].

B2: peptide 2 (CSMQEALS) (peptide)
peptide: CSMQEALS
notes: Mesothelin 592-598 with an added N-terminal cysteine
B2: no binding [1]; no binding [2]; no binding [3].

B3: no binding [4]; binds [5].

B4: no binding [4]; binds [5].

B5: no binding [4]; binds [5].
